Laboratory results taken from US20050147610A1.

Tests used:
[1] = biological target: NEM-huIL-18 (recombinant mature human IL-18 treated with N-ethyl maleiamide) (human) (UniProt Q14116); assay: cell-based or functional assay
[2] = biological target: (4C/A)-huIL-18 (4C/A mutant of mature human IL-18) (human) (UniProt Q14116); assay: Biacore
[3] = biological target: NEM-huIL-18 (recombinant mature human IL-18 treated with N-ethyl maleiamide) (human) (UniProt Q14116); assay: Biacore
[4] = biological target: 125I labeled rhu-IL-18 (human) (UniProt Q14116); assay: RBA: inhibition of 125I-rhu-IL-18 binding to IL-18Rαβ on KG-1 cells
[5] = biological target: (4C/A)-huIL-18 (4C/A mutant of mature human IL-18) (human) (UniProt Q14116); assay: BIACORE
[6] = biological target: natural human IL-18 (endogenous, human whole blood) (human) (UniProt Q14116); assay: cell-based or functional assay
[7] = biological target: recombinant mature human IL-18 (preparation not specified) (human) (UniProt Q14116); assay: cell-based or functional assay

| Binder | KG-1 Assays (IC50, M), NEM-rhuIL-18 [1] [M] | Kd [2] [nM] | Kd [3] [nM] | IC50 [4] [nM] | Kd [5] [nM] | koff [5] [s⁻¹] | kon [5] [M⁻¹ s⁻¹] | WBA, Neutralization Potency in vitro (IC50, nM) [6] [nM] | KG-1, Neutralization Potency in vitro (IC50, nM) [7] [nM] |
| --- | --- | --- | --- | --- | --- | --- | --- | --- | --- |
| 268 (antibody, V domains shown) VH: ZVQLVESGGGVVQPGRSLRLSCAASGFTFRNYGLHWVRQAPGKGLEWVAVIWYDGSNKYYADSVKGRFTISRDNSKNTLYLQMNSLRAEDTAVYYCARESYYYYGMDVWGQGTTVTVSS VL: EIVMTQSPATLSVSPGERATLSCRASQSFNSNLVWYQQKPGQAPRLLIYGASTRATGIPARFSGSGSGTEFTLTISSLQSEDFAVYYCQQYNNWTWTFGQGTKVEIKR | 7e-09 | – | – | – | – | – | – | – | – |
| Murine anti-human IL-18 mAb (125-2H) (antibody, from another filing, V domains shown) VH: EIQLQQSGPELVKPGASVKVSCKASGYSFTDYFIYWVKQSHGKSLEWIGDIDPYNGDTSYNQKFRDKATLTVDQSSTTAFMHLNSLTSEDSAVYFCARGLRFWGQGTLVTVSA VL: DIQMTQSPSSLSASLGERVSLTCRASQDIGSKLYWLQQEPDGTFKRLIYATSSLDSGVPKRFSGSRSGSDYSLTISSLESEDFVDYYCLQYASSPYTFGGGTKLAIKR | – | 0.2 | 0.2 | > 300 | 0.55 | 0.00011 | 190000 | 3 | 0.2 |
